Measurements: US9315563B2, “Peptides that inhibit angiotensin converting enzyme and peptides with antioxidant activity purified from ovotransferrin and methods of producing and using the same” (The Governors of the University of Alberta, priority 2009, dated 2016)

Test: ORAC-FL assay (oxygen radical absorbance capacity)
Conditions: ovotransferrin hydrolysates
Method: Briefly, 80 mM AAPH and 200 nM fluorescein in 75 mM phosphate buffer at pH 7.4 were prepared for each experiment. For each run, 20 μL of antioxidant, and 80 μL of phosphate buffer (or 100 μL of Trolox standard solutions at final concentrations of 1 to 8 μM) were placed in wells of a 96-well microplate, followed by addition of 50 μL of the fluorescein solution. The mixture was preincubated for 15 min at 37° C. 50 μL of AAPH solution was added rapidly using a multichannel pipet. The microplate was immediately placed in a Fluoroskan Ascent microplate reader (Thermo Electron Corporation) with 485-P excitation and 538-P emission filters and the fluorescence recorded every minute for 100 min. All readings were recorded using Fluoroskan Ascent software. The area under the curve of fluorescence decay (AUC) was calculated using Graphpad prism software (trial version). Regression equations between AUC and antioxidant concentrations were calculated for all the samples. The ORAC value was calculated by dividing the slope of sample regression curve by the slope of Trolox regression curve. Final ORAC values were expressed as μmol of Trolox equivalent/mg of protein or peptide.

B1: Unhydrolyzed ovotransferrin: egg ovotransferrin, un-hydrolyzed parent protein (protein, UniProt P02789 20-705, looked up)
Ovotransferrin: APPKSVIRWCTISSPEEKKCNNLRDLTQQERISLTCVQKATYLDCIKAIANNEADAISLDGGQAFEAGLAPYKLKPIAAEVYEHTEGSTTSYYAVAVVKKGTEFTVNDLQGKTSCHTGLGRSAGWNIPIGTLLHRGAIEWEGIESGSVEQAVAKFFSASCVPGATIEQKLCRQCKGDPKTKCARNAPYSGYSGAFHCLKDGKGDVAFVKHTTVNENAPDQKDEYELLCLDGSRQPVDNYKTCNWARVAAHAVVARDDNKVEDIWSFLSKAQSDFGVDTKSDFHLFGPPGKKDPVLKDLLFKDSAIMLKRVPSLMDSQLYLGFEYYSAIQSMRKDQLTPSPRENRIQWCAVGKDEKSKCDRWSVVSNGDVECTVVDETKDCIIKIMKGEADAVALDGGLVYTAGVCGLVPVMAERYDDESQCSKTDERPASYFAVAVARKDSNVNWNNLKGKKSCHTAVGRTAGWVIPMGLIHNRTGTCNFDEYFSEGCAPGSPPNSRLCQLCQGSGGIPPEKCVASSHEKYFGYTGALRCLVEKGDVAFIQHSTVEENTGGKNKADWAKNLQMDDFELLCTDGRRANVMDYRECNLAEVPTHAVVVRPEKANKIRDLLERQEKRFGVNGSEKSKFMMFESQNKDLLFKDLTKCLFKVREGTTYKEFLGDKFYTVISSLKTCNPSDILQMCSFLEGK
With B1 as the molecule, how does the ORAC read?
Its ORAC is 0.21 ± 0.04 µmol/mg.
